Data from patent US20110158908A1 (SAPPORO MEDICAL UNIVERSITY, published 2011).

T1: CSABP (cyclosporin A-binding protein), endogenous in MH14 cells (human, UniProt Q9H6S0 1-1430)
T1 construct: also called CSABP protein; CSABP molecule
T1 sequence: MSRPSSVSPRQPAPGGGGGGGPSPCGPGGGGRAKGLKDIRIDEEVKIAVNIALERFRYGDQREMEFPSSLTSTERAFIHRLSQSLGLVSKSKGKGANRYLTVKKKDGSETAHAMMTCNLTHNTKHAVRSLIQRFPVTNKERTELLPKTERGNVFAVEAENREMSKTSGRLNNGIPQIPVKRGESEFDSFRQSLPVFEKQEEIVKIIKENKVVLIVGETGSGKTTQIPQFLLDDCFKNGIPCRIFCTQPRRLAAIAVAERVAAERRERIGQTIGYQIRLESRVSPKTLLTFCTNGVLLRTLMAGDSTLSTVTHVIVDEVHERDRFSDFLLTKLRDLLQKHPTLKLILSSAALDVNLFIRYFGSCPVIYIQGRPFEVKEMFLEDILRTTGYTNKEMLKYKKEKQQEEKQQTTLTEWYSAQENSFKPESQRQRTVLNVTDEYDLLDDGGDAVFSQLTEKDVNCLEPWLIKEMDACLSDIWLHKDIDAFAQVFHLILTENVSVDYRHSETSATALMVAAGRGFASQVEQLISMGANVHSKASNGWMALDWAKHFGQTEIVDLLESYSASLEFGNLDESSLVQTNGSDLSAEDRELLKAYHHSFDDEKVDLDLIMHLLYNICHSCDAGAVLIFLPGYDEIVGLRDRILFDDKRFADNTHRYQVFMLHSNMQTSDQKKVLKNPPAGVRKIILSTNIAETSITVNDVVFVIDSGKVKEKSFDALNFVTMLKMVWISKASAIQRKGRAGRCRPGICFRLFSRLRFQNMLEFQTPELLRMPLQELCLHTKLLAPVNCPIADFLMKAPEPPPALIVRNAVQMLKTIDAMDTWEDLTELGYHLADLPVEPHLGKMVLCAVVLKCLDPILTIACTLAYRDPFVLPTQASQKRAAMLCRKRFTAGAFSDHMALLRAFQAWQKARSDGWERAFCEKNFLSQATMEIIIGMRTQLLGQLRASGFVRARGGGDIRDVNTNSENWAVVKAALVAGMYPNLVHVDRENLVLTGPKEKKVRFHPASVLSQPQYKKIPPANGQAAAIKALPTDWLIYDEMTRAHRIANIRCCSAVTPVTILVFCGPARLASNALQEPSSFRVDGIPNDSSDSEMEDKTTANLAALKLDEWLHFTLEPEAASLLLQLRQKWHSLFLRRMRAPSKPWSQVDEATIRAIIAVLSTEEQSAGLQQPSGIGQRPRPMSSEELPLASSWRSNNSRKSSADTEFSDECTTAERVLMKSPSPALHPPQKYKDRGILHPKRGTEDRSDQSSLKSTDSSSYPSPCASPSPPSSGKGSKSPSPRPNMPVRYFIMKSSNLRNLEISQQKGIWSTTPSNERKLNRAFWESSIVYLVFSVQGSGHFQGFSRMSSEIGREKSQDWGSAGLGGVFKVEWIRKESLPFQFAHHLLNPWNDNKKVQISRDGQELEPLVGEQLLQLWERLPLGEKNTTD

B1: Protein G Sepharose (other, UniProt P19909 303-497, looked up)
chain: TYKLILNGKTLKGETTTEAVDAATAEKVFKQYANDNGVDGEWTYDDATKTFTVTEKPEVIDASELTPAVTTYKLVINGKTLKGETTTEAVDAATAEKVFKQYANDNGVDGEWTYDDATKTFTVTEKPEVIDASELTPAVTTYKLVINGKTLKGETTTKAVDAETAEKAFKQYANDNGVDGVWTYDDATKTFTVTE
B2: cyclophilin B (CyPB) (enzyme)
chain: not shown

Assays:
[1] = molecular target: T1, CSABP (cyclosporin A-binding protein), …; test: Protein G Sepharose control precipitation from MH14 cell extract, western blot with anti-CSABP antibody
Protein G Sepharose = molecular target: B1; test: Protein G Sepharose control precipitation from MH14 cell extract, western blot with anti-CyPB antibody

Row | Binder | binding result [1] | binding result (Protein G Sepharose)
1 | B1 | no binding | –
2 | B2 | – | no binding
